T1: MPDZ_12, O75970
T1 sequence (O75970 1857-1958, limits assumed, looked up): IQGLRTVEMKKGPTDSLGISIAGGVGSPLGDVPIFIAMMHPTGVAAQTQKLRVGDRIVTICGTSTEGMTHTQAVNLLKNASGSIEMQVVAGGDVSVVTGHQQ

T2: PARD3B_1, Q8TEW8
T2 sequence (Q8TEW8 196-299, limits assumed, looked up): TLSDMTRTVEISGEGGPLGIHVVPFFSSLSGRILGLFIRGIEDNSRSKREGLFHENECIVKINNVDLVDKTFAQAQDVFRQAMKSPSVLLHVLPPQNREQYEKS

T3: CARD11, Q9BXL7
T3 sequence (Q9BXL7 662-765, limits assumed, looked up): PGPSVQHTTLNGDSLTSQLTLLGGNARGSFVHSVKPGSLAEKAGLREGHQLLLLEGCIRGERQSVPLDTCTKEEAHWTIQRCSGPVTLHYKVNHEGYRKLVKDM

T4: RHPN1, Q8TCX5
T4 sequence (Q8TCX5 508-602, limits assumed, looked up): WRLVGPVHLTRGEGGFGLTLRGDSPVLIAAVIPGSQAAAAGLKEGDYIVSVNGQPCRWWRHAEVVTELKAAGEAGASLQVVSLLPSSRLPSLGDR

T5: SHANK1, Q9Y566
T5 sequence (Q9Y566 658-767, limits assumed, looked up): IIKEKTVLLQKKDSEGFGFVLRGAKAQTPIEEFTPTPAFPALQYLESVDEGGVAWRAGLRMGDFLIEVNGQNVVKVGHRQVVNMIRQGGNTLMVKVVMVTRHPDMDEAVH

T6: GRIP1_4, Q9Y3R0
T6 sequence (Q9Y3R0 467-571, limits assumed, looked up): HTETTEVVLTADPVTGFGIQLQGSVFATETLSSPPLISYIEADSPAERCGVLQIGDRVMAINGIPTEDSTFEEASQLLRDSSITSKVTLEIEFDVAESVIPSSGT

T7: LIN7C, Q9NUP9
T7 sequence (Q9NUP9 88-185, limits assumed, looked up): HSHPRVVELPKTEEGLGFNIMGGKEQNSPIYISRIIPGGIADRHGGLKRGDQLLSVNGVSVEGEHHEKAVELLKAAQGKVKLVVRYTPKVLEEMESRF

T8: SIPA1L2, Q9P2F8
T8 sequence (Q9P2F8 945-1036, limits assumed, looked up): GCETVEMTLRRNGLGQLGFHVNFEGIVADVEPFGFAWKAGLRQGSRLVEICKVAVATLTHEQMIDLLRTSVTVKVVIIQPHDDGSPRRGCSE


Legend:
Experiment in all cases: holdup assay
Parameters in all cases: key: below the threshold = too weak to quantify, mostly under pKd 3.1 to 4
Details in all cases: plain residues with an end cap or a label only (N-terminal biotin on a linker: ado-ado)
SNX27, Q96L92 = target: SNX27, Q96L92
GRID2IP_2, A4D2P6 = target: GRID2IP_2, A4D2P6
GRID2IP_2, A4D2P6, sequence (A4D2P6 272-370): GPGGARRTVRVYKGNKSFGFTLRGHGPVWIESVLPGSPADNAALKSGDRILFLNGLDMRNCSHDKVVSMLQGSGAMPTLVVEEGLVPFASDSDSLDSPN

FRMPD2_2, Q68DX3 = target: FRMPD2_2, Q68DX3
FRMPD2_2, Q68DX3, sequence (Q68DX3 944-1038): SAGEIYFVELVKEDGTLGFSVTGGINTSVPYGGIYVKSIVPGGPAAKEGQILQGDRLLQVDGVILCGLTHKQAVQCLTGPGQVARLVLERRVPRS

MPDZ_12, O75970 = target: T1, MPDZ_12, O75970
PARD3B_1, Q8TEW8 = target: T2, PARD3B_1, Q8TEW8
GRIP2_4, Q9C0E4 = target: GRIP2_4, Q9C0E4
GRIP2_4, Q9C0E4, sequence (Q9C0E4 446-548): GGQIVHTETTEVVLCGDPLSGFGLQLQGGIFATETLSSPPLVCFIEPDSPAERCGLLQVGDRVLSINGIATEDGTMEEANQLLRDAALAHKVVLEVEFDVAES

FRMPD4, Q14CM0 = target: FRMPD4, Q14CM0
FRMPD4, Q14CM0, sequence (Q14CM0 67-160): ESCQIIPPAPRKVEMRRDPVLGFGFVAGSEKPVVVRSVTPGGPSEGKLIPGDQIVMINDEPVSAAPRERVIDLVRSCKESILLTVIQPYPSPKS

HTRA2, O43464 = target: HTRA2, O43464
HTRA2, O43464, sequence (O43464 355-458): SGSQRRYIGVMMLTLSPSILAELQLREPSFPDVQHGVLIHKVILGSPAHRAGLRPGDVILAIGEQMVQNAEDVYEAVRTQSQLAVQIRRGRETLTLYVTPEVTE

DLG1_3, Q12959 = target: DLG1_3, Q12959
DLG1_3, Q12959, sequence (Q12959 457-571): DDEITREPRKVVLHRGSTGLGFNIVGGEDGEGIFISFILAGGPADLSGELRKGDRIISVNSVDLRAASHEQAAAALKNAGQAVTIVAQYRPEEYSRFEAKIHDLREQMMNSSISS

CARD11, Q9BXL7 = target: T3, CARD11, Q9BXL7
NHERF4_4, Q86UT5 = target: NHERF4_4, Q86UT5
NHERF4_4, Q86UT5, sequence (Q86UT5 464-550): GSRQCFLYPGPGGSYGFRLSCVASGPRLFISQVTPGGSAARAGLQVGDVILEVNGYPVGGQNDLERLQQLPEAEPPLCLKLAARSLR

SCRIB_3, Q14160 = target: SCRIB_3, Q14160
SCRIB_3, Q14160, sequence (Q14160 999-1103): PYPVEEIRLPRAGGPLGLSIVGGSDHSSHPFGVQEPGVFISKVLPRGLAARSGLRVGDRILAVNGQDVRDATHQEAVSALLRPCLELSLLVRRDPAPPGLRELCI

LNX1_3, Q8TBB1 = target: LNX1_3, Q8TBB1
LNX1_3, Q8TBB1, sequence (Q8TBB1 500-596): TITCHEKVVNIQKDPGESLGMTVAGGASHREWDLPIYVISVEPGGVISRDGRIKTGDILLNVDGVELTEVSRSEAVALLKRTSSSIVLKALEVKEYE

Inadl_1, Q8NI35 = target: Inadl_1, Q8NI35
Inadl_1, Q8NI35, sequence (Q8NI35 113-229): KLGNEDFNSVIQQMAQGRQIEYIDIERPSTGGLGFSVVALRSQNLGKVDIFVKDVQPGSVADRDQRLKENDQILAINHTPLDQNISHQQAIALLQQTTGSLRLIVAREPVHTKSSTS

RHPN1, Q8TCX5 = target: T4, RHPN1, Q8TCX5
SHANK1, Q9Y566 = target: T5, SHANK1, Q9Y566
GRIP1_4, Q9Y3R0 = target: T6, GRIP1_4, Q9Y3R0
Inadl_2, Q8NI35 = target: Inadl_2, Q8NI35
Inadl_2, Q8NI35, sequence (Q8NI35 238-335): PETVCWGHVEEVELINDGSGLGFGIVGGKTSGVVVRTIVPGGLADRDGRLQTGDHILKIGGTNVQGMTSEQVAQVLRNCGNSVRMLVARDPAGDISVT

Inadl_6, Q8NI35 = target: Inadl_6, Q8NI35
Inadl_6, Q8NI35, sequence (Q8NI35 1058-1167): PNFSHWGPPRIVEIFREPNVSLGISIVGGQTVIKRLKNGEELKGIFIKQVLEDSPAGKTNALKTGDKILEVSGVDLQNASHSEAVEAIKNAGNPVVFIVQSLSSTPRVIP

NHERF4_1, Q86UT5-2 = target: NHERF4_1, Q86UT5-2
NHERF4_1, Q86UT5-2, sequence (Q86UT5 other isoform, or with tags, fused parts or gaps): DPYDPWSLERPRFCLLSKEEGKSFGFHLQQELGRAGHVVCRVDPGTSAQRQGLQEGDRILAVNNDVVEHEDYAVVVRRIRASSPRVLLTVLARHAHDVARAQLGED

LIN7C, Q9NUP9 = target: T7, LIN7C, Q9NUP9
MAGI2_2, Q86UL8 = target: MAGI2_2, Q86UL8
MAGI2_2, Q86UL8, sequence (Q86UL8 410-522): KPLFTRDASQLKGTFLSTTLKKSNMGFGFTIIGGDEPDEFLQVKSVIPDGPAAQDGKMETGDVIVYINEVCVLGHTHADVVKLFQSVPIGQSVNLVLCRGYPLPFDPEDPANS

GORASP1, Q9BQQ3 = target: GORASP1, Q9BQQ3
GORASP1, Q9BQQ3, sequence (Q9BQQ3 1-208): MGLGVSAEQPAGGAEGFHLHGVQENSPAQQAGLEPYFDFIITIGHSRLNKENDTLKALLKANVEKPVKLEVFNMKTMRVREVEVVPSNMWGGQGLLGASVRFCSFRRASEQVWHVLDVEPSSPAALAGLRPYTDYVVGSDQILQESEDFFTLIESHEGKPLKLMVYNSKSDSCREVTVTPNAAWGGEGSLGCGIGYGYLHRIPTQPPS

NHERF2_2, Q15599 = target: NHERF2_2, Q15599
NHERF2_2, Q15599, sequence (Q15599 142-238): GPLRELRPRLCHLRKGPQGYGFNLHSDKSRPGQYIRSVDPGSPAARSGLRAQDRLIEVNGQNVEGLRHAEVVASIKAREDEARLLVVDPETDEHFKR

MAGI2_6, Q86UL8 = target: MAGI2_6, Q86UL8
MAGI2_6, Q86UL8, sequence (Q86UL8 1141-1229): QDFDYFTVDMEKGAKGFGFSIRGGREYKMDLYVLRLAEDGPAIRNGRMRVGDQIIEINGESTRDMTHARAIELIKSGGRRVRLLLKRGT

LDB3, O75112 = target: LDB3, O75112
LDB3, O75112, sequence (O75112 1-94): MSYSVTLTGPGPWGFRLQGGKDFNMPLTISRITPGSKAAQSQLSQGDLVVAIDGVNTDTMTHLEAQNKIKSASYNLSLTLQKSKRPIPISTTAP

PTPN3, P26045 = target: PTPN3, P26045
PTPN3, P26045, sequence (P26045 505-587): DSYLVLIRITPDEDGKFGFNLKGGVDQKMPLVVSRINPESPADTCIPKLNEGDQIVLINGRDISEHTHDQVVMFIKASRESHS

DLG4_1, P78352 = target: DLG4_1, P78352
DLG4_1, P78352, sequence (P78352 62-152): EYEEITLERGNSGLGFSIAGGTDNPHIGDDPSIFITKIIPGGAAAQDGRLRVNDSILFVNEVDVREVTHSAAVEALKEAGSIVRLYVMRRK

SIPA1L2, Q9P2F8 = target: T8, SIPA1L2, Q9P2F8

Binder | pKd (SNX27, Q96L92) | pKd (GRID2IP_2, A4D2P6) | pKd (FRMPD2_2, Q68DX3) | pKd (MPDZ_12, O75970) | pKd (PARD3B_1, Q8TEW8) | pKd (GRIP2_4, Q9C0E4) | pKd (FRMPD4, Q14CM0) | pKd (HTRA2, O43464) | pKd (DLG1_3, Q12959) | pKd (CARD11, Q9BXL7) | pKd (NHERF4_4, Q86UT5) | pKd (SCRIB_3, Q14160) | pKd (LNX1_3, Q8TBB1) | pKd (Inadl_1, Q8NI35) | pKd (RHPN1, Q8TCX5) | pKd (SHANK1, Q9Y566) | pKd (GRIP1_4, Q9Y3R0) | pKd (Inadl_2, Q8NI35) | pKd (Inadl_6, Q8NI35) | pKd (NHERF4_1, Q86UT5-2) | also measured
RDYTQSSSSL [GRM5, P41594] | 4.25 | 4.12 | below the threshold | below the threshold | 3.82 | below the threshold | 3.65 | below the threshold | below the threshold | below the threshold | below the threshold | 4.05 | below the threshold | below the threshold | 3.51 | 4.7 | below the threshold | below the threshold | below the threshold | 4.13 | pKd (LIN7C, Q9NUP9): below the threshold; pKd (MAGI2_2, Q86UL8): below the threshold; pKd (GORASP1, Q9BQQ3): below the threshold; pKd (NHERF2_2, Q15599): 4.52; pKd (MAGI2_6, Q86UL8): 3.49; pKd (LDB3, O75112): below the threshold; pKd (PTPN3, P26045): 4.27; pKd (DLG4_1, P78352): below the threshold; pKd (SIPA1L2, Q9P2F8): below the threshold
PLATCDETSI [SEMA4F, O95754] | 5.26 | below the threshold | 3.53 | below the threshold | below the threshold | below the threshold | below the threshold | below the threshold | below the threshold | below the threshold | below the threshold | 4.81 | below the threshold | below the threshold | 4.93 | 3.87 | below the threshold | below the threshold | below the threshold | below the threshold | pKd (LIN7C, Q9NUP9): below the threshold; pKd (MAGI2_2, Q86UL8): below the threshold; pKd (GORASP1, Q9BQQ3): below the threshold; pKd (NHERF2_2, Q15599): 4.31; pKd (MAGI2_6, Q86UL8): 3.87; pKd (LDB3, O75112): below the threshold; pKd (PTPN3, P26045): 4.72; pKd (DLG4_1, P78352): below the threshold; pKd (SIPA1L2, Q9P2F8): below the threshold

The next lines start with results.

pKd (SNX27, Q96L92) | pKd (GRID2IP_2, A4D2P6) | pKd (FRMPD2_2, Q68DX3) | pKd (MPDZ_12, O75970) | pKd (PARD3B_1, Q8TEW8) | pKd (GRIP2_4, Q9C0E4) | pKd (FRMPD4, Q14CM0) | pKd (HTRA2, O43464) | pKd (DLG1_3, Q12959) | pKd (CARD11, Q9BXL7) | pKd (NHERF4_4, Q86UT5) | pKd (SCRIB_3, Q14160) | pKd (LNX1_3, Q8TBB1) | pKd (Inadl_1, Q8NI35) | pKd (RHPN1, Q8TCX5) | pKd (SHANK1, Q9Y566) | pKd (GRIP1_4, Q9Y3R0) | pKd (Inadl_2, Q8NI35) | pKd (Inadl_6, Q8NI35) | pKd (NHERF4_1, Q86UT5-2) | Binder | also measured
below the threshold | below the threshold | below the threshold | below the threshold | 4.12 | below the threshold | below the threshold | below the threshold | below the threshold | below the threshold | below the threshold | below the threshold | below the threshold | below the threshold | below the threshold | below the threshold | below the threshold | below the threshold | below the threshold | 4.08 | FVFESRKEIL [TBPL1, P62380] | pKd (LIN7C, Q9NUP9): 3.95; pKd (MAGI2_2, Q86UL8): below the threshold; pKd (GORASP1, Q9BQQ3): 3.57; pKd (NHERF2_2, Q15599): below the threshold; pKd (MAGI2_6, Q86UL8): below the threshold; pKd (LDB3, O75112): below the threshold; pKd (PTPN3, P26045): below the threshold; pKd (DLG4_1, P78352): below the threshold; pKd (SIPA1L2, Q9P2F8): below the threshold
below the threshold | below the threshold | below the threshold | 3.73 | 4.65 | below the threshold | 3.49 | below the threshold | below the threshold | below the threshold | below the threshold | below the threshold | below the threshold | below the threshold | below the threshold | below the threshold | below the threshold | below the threshold | below the threshold | below the threshold | KPDKQEEFYA [SDC3, O75056] | pKd (LIN7C, Q9NUP9): below the threshold; pKd (MAGI2_2, Q86UL8): below the threshold; pKd (GORASP1, Q9BQQ3): below the threshold; pKd (NHERF2_2, Q15599): below the threshold; pKd (MAGI2_6, Q86UL8): below the threshold; pKd (LDB3, O75112): below the threshold; pKd (PTPN3, P26045): 3.8; pKd (DLG4_1, P78352): below the threshold; pKd (SIPA1L2, Q9P2F8): below the threshold
3.85 | below the threshold | below the threshold | 3.47 | 4.51 | below the threshold | 4.39 | below the threshold | 3.73 | below the threshold | below the threshold | 3.53 | below the threshold | below the threshold | 3.55 | 4.71 | below the threshold | below the threshold | below the threshold | 4.22 | DSEEELPTRL [GRK6, P43250] | pKd (LIN7C, Q9NUP9): below the threshold; pKd (MAGI2_2, Q86UL8): 3.54; pKd (GORASP1, Q9BQQ3): below the threshold; pKd (NHERF2_2, Q15599): 4.51; pKd (MAGI2_6, Q86UL8): below the threshold; pKd (LDB3, O75112): below the threshold; pKd (PTPN3, P26045): 3.77; pKd (DLG4_1, P78352): below the threshold; pKd (SIPA1L2, Q9P2F8): below the threshold

— PMC9482650, “Quantitative fragmentomics allow affinity mapping of interactomes” (Nature Communications, 2022)
